Experimental data from patent publication US20220259306A1.

Key:
[1] = molecular target: human NKG2A/CD94 on the cell surface (CHOk1-hNKG2A/CD94 stable cell line) (human) (UniProt P26715); experiment: FACS on CHOK1-hNKG2A/CD94 cells
[2] = molecular target: human NKG2A/CD94 on the cell surface (CHOk1-hNKG2A/CD94 stable cell line) (human) (UniProt P26715); experiment: FACS on CHOK1-hNKG2A/CD94 cells, Alexa 488 secondary antibody
[3] = molecular target: human NKG2A/CD94 on the cell surface (CHOk1-hNKG2A/CD94 stable cell line) (human) (UniProt P26715); experiment: FACS blocking assay: HLA-E-PE binding to CHOk1-hNKG2A/CD94 cells in the presence of the antibody

EC50 (read off the curve) [1]	EC50 (read off the curve) [2]	IC50 (read off the curve) [3]	Binder
	0.8 nM	1 nM	Mab033 (antibody, V domains shown) VH: EVQLQQSVAEFVRPGASVRLSCTASGFNIENTYIHWLKQRPEQGLEWIGRIDPANGDTQYDPKFQGKATLTAATSSNTAYLQLSGLTSEDTAIYYCTRYGDYLFYYSLKYWGQGTSVTVSS VL: DIVMTQAAPSVSVTPGESVSISCRSSKSLLHSNGNTYLYWFLQRPGQSPQLLIYRMSNLASGVPDRFSGSGSGTAFTLRISRVEAEDVGVYYCMQHLESPYTFGGGTKLEIK
	0.7 nM		Mpb416 (antibody, V domains shown) VH: QVQLQQSVAELVRPGASVKLSCTASGFNIQNTYIHWVKQRPEQGLEWIGKIDPANGDTKYAPTFQGKATITADTSSNTAYLQLSSLTPEDTAIYYCARYRDYLFYYALGYWGQGTSVTVSS VL: DIVMTQSAPSVPVTPGESVSISCRSSKSLLHSNGNTYLYWFLQRPGQSPQLLIYRMSNLASGVPDRFSGSGSGTAFTLRISRVEAEDVGVYYCMQHLEYPYTFGGGTKLEIK
	0.8 nM	1 nM	Mab032 (antibody, V domains shown) VH: EVQLQQSVAELVRPGASVRLSCTGSGFNIENTYMHWLKQRPEQGLEWIGRIDPADGDTQYAPKFQGKATITTDTSSNTAYLQLSSLTSEDTAIYYCARYGNYLFYYSMDYWGQGTSVTVSS VL: DIVMTQAAPSVPVTPGESVSISCRSSKSLLHSNGNTYLYWFLQRPGQSPQLLIYRMSNLASGVPDRFSGSGSATAFTLRISRVEAEDVGIYYCMQHLEYPYTFGGGTKLEIK

The remaining lines, values behind:

Binder	EC50 (read off the curve) [1]	EC50 (read off the curve) [2]	IC50 (read off the curve) [3]
M15-5 (antibody, V domains shown) VH: QVQLVQSGAEVKKPGASVKVSCKASGFNIQNTYIHWVKQAPGQGLEWIGKIDPANADTKYAPTFQGRATITADTSTNTAYLELSSLRSEDTAVYYCARYRDYLFYYALGYWGQGTTVTVSS VL: DIVMTQSPLSLPVTPGEPASISCRSSKSLLHSNANTYLYWYLQKPGQSPQLLIYRMSNLASGVPDRFSGSGSGTDFTLKISRVEAEDVGVYYCMQHLEYPYTFGQGTKLEIK	1 nM		
Mab031 (antibody, V domains shown) VH: EVQLQQSVAELVRPGASVRLSCTGSGFNIQNTYIHWVKQRPEQGLEWIGRIDPANGDTKYAPKFQGKATITADTSSNTAYLQLSSLTSEDTAIYYCTRYGNYLYYYSLDYWGQGTSVTVSS VL: DIVMTQAAPSVPVTPGESVSISCRSSKSLLHSNGNTYLYWFLQRPGQSPQLLIYRMSNLASGVPDRFSGSGSGTAFTLRISRVEAEDMGVYYCMQHLEYPYTFGGGTKLEIK		0.8 nM	1 nM
M15 (antibody, V domains shown) VH: QVQLQQSVAELVRPGASVKLSCTASGFNIQNTYIHWVKQRPEQGLEWIGKIDPANADTKYAPTFQGKATITADTSSNTAYLQLSSLTPEDTAIYYCARYRDYLFYYALGYWGQGTSVTVSS VL: DIVMTQSAPSVPVTPGESVSISCRSSKSLLHSNANTYLYWFLQRPGQSPQLLIYRMSNLASGVPDRFSGSGSGTAFTLRISRVEAEDVGVYYCMQHLEYPYTFGGGTKLEIK	0.8 nM		
